Laboratory results as given in patent US20060258607.

Target: biotinylated human D-ghrelin (octanoylated) (Homo sapiens) (UniProt Q9UBU3)
Test: pulldown
Conditions: 37 C, 1 mM Ca/Mg, 47% active

Chain of UniProt Q9UBU3 (Q9UBU3 24-51): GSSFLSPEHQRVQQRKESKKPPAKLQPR

CGUGUGAGGCAAUAAAACUUAAGUCCGAAGGUAACCAAUCCUACACG [SOT-C (B11trc, D-RNA)]
Kd: 100 nM
